{"source": "patent US20250277030A1", "about": "“ANTI-NAPI2B ANTIBODIES AND METHODS OF USE” (Zymeworks BC Inc., priority 2022, published 2025)", "key": {"[1]": {"target": "T1, NaPi2b expressed on IGROV-1 cells (Homo sapiens, UniProt O95436)", "T1 construct": "IGROV-1 cells express endogenous NaPi2b at a high level; endogenous in cells; host or cells: IGROV-1", "T1 sequence (O95436 1-690)": "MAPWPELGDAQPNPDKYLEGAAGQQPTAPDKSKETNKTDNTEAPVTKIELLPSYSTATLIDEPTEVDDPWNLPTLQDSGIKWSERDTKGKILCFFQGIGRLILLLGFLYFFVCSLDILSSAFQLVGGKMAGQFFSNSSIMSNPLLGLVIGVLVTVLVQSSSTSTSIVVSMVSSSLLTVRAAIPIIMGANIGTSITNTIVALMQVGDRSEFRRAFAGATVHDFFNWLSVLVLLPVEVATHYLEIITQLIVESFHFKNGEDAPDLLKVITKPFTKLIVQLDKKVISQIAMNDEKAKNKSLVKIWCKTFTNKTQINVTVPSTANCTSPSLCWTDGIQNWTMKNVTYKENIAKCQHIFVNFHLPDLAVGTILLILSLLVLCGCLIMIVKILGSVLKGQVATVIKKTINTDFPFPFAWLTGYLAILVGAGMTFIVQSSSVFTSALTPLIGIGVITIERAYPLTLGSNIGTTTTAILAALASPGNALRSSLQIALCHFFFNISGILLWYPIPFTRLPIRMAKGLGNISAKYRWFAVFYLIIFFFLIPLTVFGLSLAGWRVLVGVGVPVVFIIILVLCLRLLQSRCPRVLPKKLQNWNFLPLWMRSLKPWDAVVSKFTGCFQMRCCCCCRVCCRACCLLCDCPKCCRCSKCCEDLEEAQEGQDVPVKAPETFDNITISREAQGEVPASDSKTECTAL", "assay": "Cellular binding to IGROV-1 cells by flow cytometry (Example 19)", "settings": "NB = no binding (apparent Kd >150 nM)", "description": "Briefly, cells were seeded at 50,000 cells/well in conical-bottom 96-well plates and treated with test antibody for 24 hours at 4° C. to prevent internalization. Palivizumab (anti-RSV antibody, v22277) was included as a negative control. […] Following incubation, cells were washed and stained with anti-Human IgG Fc AF647 conjugate (Jackson Immuno Research Labs, West Grove, PA; Cat. No. 109-605-098) at 4° C. for 30 min. Following incubation and washing, fluorescence was detected by flow cytometry on a BD LSRFortessa™ Cell Analyzer (BD Biosciences, Franklin Lake, NJ) with 1,000 minimum events collected per well. The AF647/APC-A GeoMean (fluorescence signal geometric mean, proportional to anti-Human AF647 binding) was calculated for the live cell population using FlowJo™ Version 10.8.1 (BD Biosciences, Franklin Lake, NJ) and plotted for each test antibody using GraphPad Prism Version 9 (GraphPad Software, San Diego, CA).\nThe ability of the humanized antibody variants v38591 and v29456 to bind to NaPi2b expressed on cells was assessed on endogenous NaPi2b-expressing tumor cell lines IGROV-1 (ovarian adenocarcinoma) and TOV-21G (ovarian carcinoma) by flow cytometry. IGROV-1 and TOV-21G cells express endogenous NaPi2b at high and moderate levels, respectively, as described in Example 10.\nCellular binding was performed according to methods described in Example 13."}, "[2]": {"assay": "NS-ELISA non-specific binding, heparin", "settings": "mAb at 100 nM", "description": "(§1) The isoelectric point was measured by capillary isoelectric focusing (cIEF), the propensity for self-aggregation was measured by Affinity-capture self-interaction nanoparticle spectroscopy (AC-SINS) and non-specific binding was measured by NS-ELISA, as described below.\n(§2) NS-ELISA was used to measure the propensity of the antibodies to bind to a range of biomolecules to emulate the undesirable non-specific interactions to biological matrices in vivo as described below.\n(§3) NS-ELISA was carried out in Corning®96-well EIA/RIA Easy Wash™ Clear Flat Bottom Polystyrene High Bind Microplate coated overnight at 4° C. with 50 μL of Heparin (Sigma, H3149) diluted with 50 mM sodium carbonate pH 9.6 to a final concentration of 250 μg/mL. The plate was incubated for 2 days at room temperature, wells that were coated with heparin were not covered to allow air dry. […] Reactions were stopped after approximately 10 minutes by adding 100 μL of 1 M HCl to each well, and absorbance was read at 450 nm. Binding scores were calculated as the ratio of the ELISA signal of the antibody (antibody-treated) to the signal of a well containing buffer instead of the primary antibody (untreated). The cutoffs considered for each binding molecule (ssDNA, KLH, insulin, dsDNA and heparin) were internally calculated, based on the average of Zymeworks Inc. produced antibodies and antibodies benchmarks published in the literature."}, "[3]": {"target": "T2, Insulin (Homo sapiens, UniProt P01308)", "T2 construct": "purchased Sigma-Aldrich 19278", "T2 sequence (P01308 25-54 limits assumed)": "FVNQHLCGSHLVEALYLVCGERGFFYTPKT", "T2 sequence (P01308 90-110 limits assumed)": "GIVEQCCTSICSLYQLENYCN", "assay": "NS-ELISA non-specific binding, insulin", "settings": "mAb at 100 nM", "description": "as §1, §2, §3"}}, "data": [{"molecule": "v29456: humanized anti-NaPi2b IgG1/kappa antibody H1L2; VH SEQ ID NO:24, VL SEQ ID NO:29 (antibody, V domains shown, v29452, v29456, v29460 VH (H1); v29453, v29454, v29455, v29456 VL (L2)) VH: QVQLVQSGAEVKKPGASVKVSCKASGFTFTSYNVHWVRQAPGQGLEWMGAISPGNGDLSYAQKFQGRVTMTRDTSTSTVYMELSSLRSEDTAVYYCARGRTGMGAVDYWGQGTLVTVSS VL: DVQMTQSPSSLSASVGDRVTITCRASQDVYSYLNWYQQKPGKAVKLLIYYTSRLQSGVPSRFSGSGSGTDYTLTISSLQPEDFATYYCQQYNIFPWTFGQGTKLEIK", "values": [{"measurement": "Bmax (MFI)", "setting": "[1]", "value": "20,096 MFI"}, {"measurement": "Curve Hill Slope (h)", "setting": "[1]", "value": 1.1}, {"measurement": "Kd", "setting": "[1]", "value": 1.28, "unit": "nM"}, {"measurement": "NS-ELISA binding score (ratio of signal between antibody-treated and untreated), Heparin", "setting": "[2]", "value": 1.06}, {"measurement": "NS-ELISA binding score (ratio of signal between antibody-treated and untreated), Insulin", "setting": "[3]", "value": 1.05}]}]}
